One series in a line: Determination of S from retention time shift Δ relative to P3 at two gradient slopes, nano-RP-HPLC MS of spiked tryptic digest. The format is physicochemical. Particulars: experimental S value, LC-MS runs of model peptide mixture. The procedure:
Proteins and protein digestion. Tryptic digests of two different protein mixtures were utilized. The “test peptide mixture” contained human proteins: albumin, transferrin, fibrinogen. The “model peptide mixture” contained bovine proteins: albumin, transferrin, fibrinogen, catalase. Equimolar mixtures of the proteins were prepared, reduced with DTT, alkylated with iodoacetamide and digested with sequencing-grade modified trypsin (Promega, Madison, Wis.). Prior to nano-LC MS/MS analysis, mixtures were diluted with buffer A (0.1% formic acid in water) and spiked with the 6 standard peptides P1-P6^24 for test mixture and the set of 11 model peptides (described elsewhere^23) for a model mixture. All dilutions were performed to provide an injection of ˜100 fmole of each component into the nanoRP-HPLC MS system.
Chromatography. All chromatographic experiments were conducted at a controlled temperature of 22-23° C. For isocratic measurement of the slope values, a micro-Agilent 1100 Series system (Agilent Technologies, Wilmington, Del.), was used with a 1 mm×100 mm 5 μm Luna C18(2) (Phenomenex, Torrance, Calif.) column and a UV detector operated at 214 nm. Both eluents A (water) and B (acetonitrile) contained 0.1% formic acid as ion-pairing modifier. Stock solutions of the 11 standard peptides (˜1 mg/ml) were prepared by dissolving each peptide in 1 ml of 0.1% FA in water or a 20% acetonitrile solution. Ten microliters of sample was injected. Individual peptides were diluted to provide ˜0.5-1 μg injection of each component using a 10 μl loop. The dead volume of the column and connecting tubings was determined by injecting a non-retained compound (water) and measuring the elution time of the negative peak at a 150 μL/min flow rate. Retention factors for isocratic elution were calculated using the formula: k=(tR−t0)/t0c; where tR is the retention time, t0 is the system (column and tubings) dead time, and t0c is the column dead time. Additional details of measuring S-values via constructing log k vs. φ plots are provided elsewhere.^24 The nano-LC MS/MS experiments were conducted using splitless Tempo LC system (Eksigent, Dublin, Calif.) with 20 μL sample injection via a 300 μm×5 mm PepMap100 (Dionex, Sunnyvale, Calif.) trap-column and a 100 μm×200 mm analytical column packed with 5 μm Luna C18(2) (Phenomenex, Torrance, Calif.). Tryptic digests of the mixtures were spiked with calibrating peptides (see Table 1) as described above, injected on the trap-column using buffer A as a carrier and separated using 0.1875, 0.375 and 0.75 percent acetonitrile per minute linear gradients starting from 0.5% acetonitrile at 500 nL/min flow rate. The composition of both eluents A and B was identical to one described above for normal-flow system. Gradient programs consisted of a 0.5-40% linear increase of buffer B in 213.2, 106.6 and 53.3 minutes, respectively. After each run the gradient columns were washed with 80% B for 3 minutes and equilibrated with the starting A:B ratio for 18 minutes.
Mass spectrometry. A QStar Elite mass spectrometer (Applied Biosystems, Foster City, Calif.) equipped with a MicrolonSpray II source was used in standard MS/MS information dependent acquisition (IDA) mode for LC-ESI analyses. Protein identification was performed using Protein Pilot 3.0 (Applied Biosystems, Foster City, Calif.) with a restricted database containing target protein sequences and the sequences of standard peptides. Retention times of identified species (peak maxima) were assigned manually.
These two ways of measurement have been combined to provide a highly accurate and fast way of determining S for an extensive sets of peptides (see FIG. 3). First, precise isocratic measurement of S is performed in normal flow conditions with UV detection for a set of synthetic “S-calibrating” peptides. […]
Take KNWIQYK: the “Slope (experimental)” value was found to be 31.919.
As to ELPDPQESIQR, the “Slope (experimental)” value is listed as 34.299.
The same measure, in the same setting: the value for LNELR was 32.443.
On to NLLFNDNTECLAK, for which the “Slope (experimental)” value was 28.81.
As for KVPQVSTPTLVEVSR, the “Slope (experimental)” value is listed as 37.64.
On to DKVVQLEANCQEPCQDTVK, for which the “Slope (experimental)” value came to 42.675.
As for LLLGGDFR, the “Slope (experimental)” value was 22.643.
For the substance ECCHGDLLECADDRADLAK, the “Slope (experimental)” value is given as 40.256.
On to GLIDEVDQDFTSR, for which the “Slope (experimental)” value is reported as 30.089.
The same measure, in the same setting: to ENFEVLCK belongs 27.436.
Same read-out and setting: the value for LCVLHEK was 34.16.
Turning to ETYGDMADCCEK, the “Slope (experimental)” value turned out to be 36.36.
Take SNLQLLR: the “Slope (experimental)” value was determined as 24.614.
For the substance VPQVSTPTLVEVSR, the “Slope (experimental)” value worked out at 33.745.
Still for that read-out and setting: the value for QTALVELLK was 24.2.
Regarding YICDNQDTISSK, the “Slope (experimental)” value is 37.666.
LAGGSASSAHAAFR: the “Slope (experimental)” value was 42.588.
Turning to RLDGSLDFKK, the “Slope (experimental)” value was 35.968.
In the case of RLCENIAGHLK, the “Slope (experimental)” value came out at 40.229.
Consider LKPDPNTLCDEFKADEK, for which the “Slope (experimental)” value is 41.815.
Consider RHPYFYAPELLYYANK, for which the “Slope (experimental)” value worked out at 35.968.
The same measure, in the same setting: the value for IQALLDKYNEEKPKN was 40.038.
The same measure, in the same setting: the value for ILESGPFVSCVK was 29.323.
With SILENLR, the “Slope (experimental)” value was 24.865.
Turning to EKYYGYTGAFR, the “Slope (experimental)” value stood at 34.957.
Still for that read-out and setting: the value for VYCDMK was 35.652; that for LLHAAHFR was 39.794; that for VVWCAVGPEEQK was 29.603.
For EYEATLEECCAK, the “Slope (experimental)” value came to 35.459.
Consider EGFGHLSPTGNTEFWLGNEK, for which the “Slope (experimental)” value turned out to be 36.558.
For IHLISTQSTIPYVLR, the “Slope (experimental)” value is reported as 35.386.
In the case of “DGTRKPVTDAENCHLAR [tryptic peptide of the model peptide mixture, 5 positively charged groups]”, the “Slope (experimental)” value turned out to be 50.359.
Take LCQLCAGK: the “Slope (experimental)” value amounted to 34.229.
Regarding ETTVFENLPEKADR, the “Slope (experimental)” value is listed as 34.533.
WQWR: the “Slope (experimental)” value is 22.398.
As to LAVAAHFR, the “Slope (experimental)” value is on record as 34.392.
On the same count and under the same terms, the value for ISQLTNMGPTK was 33.29.
Consider KKEEAPSLRPVPPPISGGGYR, for which the “Slope (experimental)” value came out at 44.873.
On the same count and under the same terms, to LAHEDPDYGLR belongs 36.832; to NLSVEDAAR, 32.289; to LLVLLHFR, 27.548.
On to YCGVPGEYWLGNDR, for which the “Slope (experimental)” value is given as 29.184.
As for LLVAAHFR, the “Slope (experimental)” value is given as 31.212.
For NECFLSHKDDSPDLPK, the “Slope (experimental)” value was found to be 41.14.
With TFYLK, the “Slope (experimental)” value is on record as 22.874.
Regarding DNPQTHYYAVAVVK, the “Slope (experimental)” value is recorded as 34.815.
Same read-out and setting: to LLGGGSLSSSLHAAAFR belongs 35.968.
With ANEGLTWNSLK, the “Slope (experimental)” value amounted to 27.455.
For VGDANPALQK, the “Slope (experimental)” value turned out to be 38.388.
Regarding LLSAAHFR, the “Slope (experimental)” value amounted to 32.998.
Take LKPDPNTLCDEFK: the “Slope (experimental)” value is listed as 36.757.
For APVDAFKECHLAQVPSHAVVAR, the “Slope (experimental)” value was found to be 46.264.
With LLSAADFR, the “Slope (experimental)” value was found to be 25.969.
Take MSTITGPVPR: the “Slope (experimental)” value is listed as 32.509.
Consider LCENIAGHLK, for which the “Slope (experimental)” value was 37.285.
For IRPYFPEQ, the “Slope (experimental)” value is on record as 28.791.
Same read-out and setting: the value for LKECCDKPLLEK was 42.82; that for FSTVAGESGSADTVRDPR was 44.208; that for NTVDSVSR was 40.092.
Turning to KPVTEAQSCHLAVAPNHAVVSR, the “Slope (experimental)” value was 49.479.
On the same count and under the same terms, the value for LASAADFR was 29.663; that for DTDFKLNELR was 30.459.
On the same count and under the same terms, the value for LLGGSLSSLHAAFR was 34.021; that for ALEHKVDLEDYK was 39.365.
In the case of ENVLR, the “Slope (experimental)” value is 31.531.
Regarding QVLLHQQALFGK, the “Slope (experimental)” value is given as 33.087.
As to DIQYLPILK, the “Slope (experimental)” value is reported as 25.291.

Still in this series, the particulars now being: experimental S, LC-MS runs of model peptide mixture, formic acid.
In the case of LLGGGGDFR, the “Slope (experimental)” value was 25.846.
As to SIEDLR, the “Slope (experimental)” value is given as 28.058.
The same measure, in the same setting: to SHCIAEVEK belongs 41.223; to ALLEMQQTK, 26.288; to DSADGFLK, 22.49.
Regarding AVVQDPALKPLALVYGEATSR, the “Slope (experimental)” value is on record as 35.627.
Regarding KENFEVLCK, the “Slope (experimental)” value was 27.567.
Regarding GDKVTALYEGFTVQNEANK, the “Slope (experimental)” value came to 35.1.
In the case of GDKELLIDNEK, the “Slope (experimental)” value came to 32.311.
As to NYELLCGDNTR, the “Slope (experimental)” value was 27.868.
Regarding AWSVAR, the “Slope (experimental)” value is 26.993.
Consider CLVEK, for which the “Slope (experimental)” value turned out to be 27.661.
For the substance CGLVPVLAENR, the “Slope (experimental)” value stood at 26.128.
Regarding QGFGNIATNAEGK, the “Slope (experimental)” value was 31.595.
The same measure, in the same setting: to “VTGENDKYR [moderately sized, hydrophilic tryptic species of the model peptide mixture]” belongs 49.044; to DALLFPSFIHSQKR, 30.728; to ESKPPDSSKDECMVK, 48.845.
In the case of QGFGNIATNAEGKK, the “Slope (experimental)” value is 37.184.
Regarding DKPDNFQLFQSPHGK, the “Slope (experimental)” value came out at 32.597.
With KNYELLCGDNTR, the “Slope (experimental)” value worked out at 33.631.
Turning to EDGGGWWVYNR, the “Slope (experimental)” value is given as 23.696.
Consider LAIGEGQQHQLGGAK, for which the “Slope (experimental)” value came to 39.74.
Take “FYTEDGNVVOLVGNNTPIFFIR (FYTEDGNWDLVGNNTPIFFIR)”: the “Slope (experimental)” value came to 31.467.
As to DDSPDLPK, the “Slope (experimental)” value came out at 30.875.
Same read-out and setting: the value for YNGVFQECCQAEDK was 32.73; that for VVWCAVGPEEQKK was 33.2; that for DFPIANGER was 26.539.
As for ECCDKPLLEK, the “Slope (experimental)” value was 35.555.
Regarding CCAADDKEACFAVEGPK, the “Slope (experimental)” value is listed as 38.207.
The same measure, in the same setting: the value for DDPHACYSTVFDK was 32.575; that for ELLIDNEK was 25.018; that for DNCCILDER was 28.077.
As for AAQKPDVLTTGGGNPVGDK, the “Slope (experimental)” value was found to be 41.223.
On the same count and under the same terms, to DALLFPSFIHSQK belongs 29.523; to “VHKECCHGDLLECADDR [fragment from bovine albumin]”, 42.014; to “DLLFR [tryptic peptide detected in the model peptide mixture]”, 18.36.
As for ECCHGDLLECADDR, the “Slope (experimental)” value is on record as 34.957.
For DDPHACYSTVFDKLK, the “Slope (experimental)” value is given as 35.483.
On the same count and under the same terms, the value for AVLKDGPLTGTYR was 35.435; that for TSHMDCIK was 40.393.

Still in this series, the particulars now being: model peptide mixture (tryptic digest of bovine proteins), 0.75 and 0.1875% acetonitrile per minute gradients, formic acid, S from Δ vs. S curve of S-calibrating peptides.
For the substance “VTGENDKYR [moderately sized, hydrophilic tryptic species of the model peptide mixture]”, the “experimental S-value” is given as 49.0.
Consider “DGTRKPVTDAENCHLAR [tryptic peptide of the model peptide mixture, 5 positively charged groups]”, for which the “experimental S-value” stood at 50.4.
Still for that read-out and setting: the value for “VHKECCHGDLLECADDR [fragment from bovine albumin]” was around 42; that for “DLLFR [tryptic peptide detected in the model peptide mixture]” was 18.4.
